Literature values in patent US9550786B2, “4-fluoropiperidine orexin receptor antagonists” (Merck Sharp & Dohme Corp., priority 2013, dated 2017).
Ends that are not written are not given here.

How the values were obtained:
OX1R = biological target: T1, OX1R (Homo sapiens, UniProt O43613)
T1 sequence (O43613 1-425): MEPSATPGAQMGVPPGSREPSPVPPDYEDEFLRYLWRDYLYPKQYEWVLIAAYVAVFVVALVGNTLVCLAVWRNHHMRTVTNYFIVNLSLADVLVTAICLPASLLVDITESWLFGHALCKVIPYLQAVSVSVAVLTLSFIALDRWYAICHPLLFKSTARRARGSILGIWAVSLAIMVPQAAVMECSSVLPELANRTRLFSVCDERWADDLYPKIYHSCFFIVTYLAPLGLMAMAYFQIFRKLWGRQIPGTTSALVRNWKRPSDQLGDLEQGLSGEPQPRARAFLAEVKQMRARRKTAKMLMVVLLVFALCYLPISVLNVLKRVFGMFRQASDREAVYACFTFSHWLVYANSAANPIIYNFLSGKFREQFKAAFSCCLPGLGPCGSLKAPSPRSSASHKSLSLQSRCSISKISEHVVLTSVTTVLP

OX2R = biological target: T2, OX2R (Homo sapiens, UniProt O43614)
T2 sequence (O43614 1-444): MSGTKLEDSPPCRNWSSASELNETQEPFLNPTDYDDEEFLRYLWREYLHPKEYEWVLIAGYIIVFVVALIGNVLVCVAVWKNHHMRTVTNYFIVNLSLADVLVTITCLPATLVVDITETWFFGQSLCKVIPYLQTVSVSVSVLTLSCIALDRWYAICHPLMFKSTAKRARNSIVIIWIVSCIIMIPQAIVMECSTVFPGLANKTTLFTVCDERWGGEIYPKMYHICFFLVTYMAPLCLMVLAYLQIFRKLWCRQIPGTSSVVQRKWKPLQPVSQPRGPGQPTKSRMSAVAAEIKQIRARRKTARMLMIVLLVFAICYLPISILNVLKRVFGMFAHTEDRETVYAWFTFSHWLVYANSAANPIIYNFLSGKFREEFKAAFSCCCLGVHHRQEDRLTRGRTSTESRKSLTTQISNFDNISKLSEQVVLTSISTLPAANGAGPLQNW

| Substance | binding affinity toward OX1R (OX1R) | binding affinity toward OX2R (OX2R) |
| --- | --- | --- |
| orexin A (QPLPDCCRQKTCSCRLYELLHGAGNHAAGILTL; not fully specified (residue 1, C-terminus, bridges); cysteine pairing not given here; UniProt O43612 34-66, looked up) [OX-A] | 20 nM |  |
| orexin B [OX-B] | 420 nM | 36 nM |
